Test results from US9505841B2, “Use of an anti-Ang2 antibody” (Samsung Electronics Co., Ltd., priority 2013, dated 2016).

Key:
[1] = tested on: ICAM-1; experiment: LPS-induced mRNA expression of ICAM-1 in HUVEC (qPCR); assay type: cell-based, human; settings: 100 ng/ml LPS 5 hours, 0.2 ug/ml Ang1 or 0.1 ug/ml Ang2 + 0.5 ug/ml antibody
Experimental: To see anti-inflammatory effects by antibody 10D6, HUVEC (ATCC) cells (4×10^5) were treated with Ang2 alone or Ang2 together with antibody 10D6, and a group in which Ang1 and Ang2 (R&D systems) and Regeneron Co. antibody (RG antibody) were co-treated was included as a control group. HUVEC cells were treated with 0.2 ug/ml of Ang1, 0.1 ug/ml of Ang2, or 0.1 ug/ml of Ang2 and 0.5 ug/ml of antibody, respectively and after 30-min. pre-incubation, they were treated with 100 ng/ml of LPS (Sigma) to induce inflammatory response and incubated for 5 hours.
The degree of the inflammatory response was identified by measuring the mRNA expression degree of an inflammatory adhesion substance (ICAM-1, E-selectin). The cells were washed using PBS, RNA was extracted using RNeasy Mini kit (Qiagen), and among them, 2 ug of RNA was synthesized into cDNA using Transcriptor First Strand cDNA synthesis kit (Roche). qPCR reaction was performed using RT2 SYBR™ Green Mastermix (Qiagen) and LightCycler™ 480 Real-Time PCR System (Roche). As an internal control for calibrating the amount of RNA in a sample, HPRT1 was used, and qPCR complied with the following procedures with regard to all the primers.
Step 1: 95° C., 10 min; Step 2 (45 cycles): Step 2-1: 95° C., 15 sec; Step 2-2: 60° C., 1 min; Step 3: 65° C., 15 sec; Step 4: 95° C., continuous (every 20° C.); Step 6: 40° C., 10 sec.

[2] = tested on: HL-60 cells adhered to HUVEC cells; experiment: Binding between inflammatory cells HL-60 and HUVEC induced by TNF-a; assay type: cell-based, human; settings: 1 ng/ml TNF-a; 0.2 ug/ml Ang1 or 0.1 ug/ml Ang2 + 0.5 ug/ml 10D6
Experimental: Meanwhile, if the expression of inflammatory adhesion substances (ICAM-1, E-selectin, etc.) of vascular endothelial cells is increased, binding between the inflammatory cells and the vascular endothelial cells are accelerated and inflammatory response is thus induced. To confirm this, an experiment for measuring binding between inflammatory cells HL-60 (ATCC) and HUVEC was conducted.
HUVEC cells (4×10^5) were cultured in a 24-mutiwell plate and treated with 0.1 ug/ml of Ang2 alone or 0.1 ug/ml of Ang2 together with 0.5 ug/ml of antibody 10D6, and a group in which 0.2 ug/ml of Ang1, and 0.1 ug/ml of Ang2 (R&D systems) and 0.5 ug/ml of Regeneron Co. antibody (RG antibody) were co-treated was included as a control group. As above, the HUVEC cells were treated with Angiopoietin and antibody and after 30-min. pre-incubation, they were treated with 1 ng/ml of TNF-a (eBioscience) to induce inflammatory response and incubated for 2 hours and 30 min.
After the HUVEC cells were washed with complete media (Lonza), HL-60 cells dyed with Calcein-AM (BD bioscience) solution were added at the amount of 2.5×10^5 cells to each well and incubated for 1 hour. […] The obtained lysate was transported to a 96-well plate, and fluorescence strengths derived from the HL-60 cells were measured at 485/535 nm (Ex/Em) setting using an Envision 2104 multilabel Reader (Perkin Elmer).

[3] = tested on: tumor blood vessels; experiment: Lectin perfusion assay in LLC tumors; assay type: in vivo, mouse; settings: 10 mg/kg i.p., five administrations, compared to Fc- or 4H10-treated group
Experimental: To see the functions of tumor blood vessels treated with antibody 10D6, perfusion level of the blood vessel was examined by Lectin perfusion assay. Referring to the method described in Example 14, LLC tumor cells were subcutaneously injected into mice. When the size of tumors reached 50˜100 mm^3, anti-Ang2 antibody 10D6 was injected at the concentration of 10 mg/kg via an intraperitoneal injection three times a week and the size of the tumors was measured. For comparison, the same experiment was performed to a control group treated with Fc of IgG1 and a comparative group treated with antibody 4H10 (refer to Example 3).
After administering the antibody five-times, the mice were injected with FITC-Lectin (Vector laboratory) via tail vein, and after 20 minutes, subjected to perfusion fixation. Tumor frozen sections were obtained and immunostained using hamster anti-CD31 antibody (1:200, Millipore). Images were obtained using LSM5 confocal microscope (Zeiss), and Lectin+ area/CD31+ area was quantified using ImageJ software (http://rsb.info.nih.gov/ij).

[4] = tested on: LLC tumor; experiment: Co-administration of anti-Ang2 antibody and cisplatin in LLC lung cancer animal model; assay type: in vivo, mouse; settings: LLC mice; antibody 10 mg/kg i.p. every three days, five times; cisplatin 3 mg/kg i.p. once; control Fc of IgG1
Experimental: The synergistic effect of co-treatment of antibody 10D6 and cisplatin was examined.
In particular, referring to Example 14, LLC tumor cells were subcutaneously injected into mice. When the size of tumors reached 50˜100 mm^3, anti-Ang2 antibody 10D6 was injected at the concentration of 10 mg/kg via an intraperitoneal injection every three days a total of five times. After administering antibody 10D6 twice, 3 mg/kg of cisplatin (Sigma-Aldrich) was intraperitoneally injected once. The size of tumor (V) was calculated using the following formula: Volume (V)=(width)2×length/2
For comparison, the same experiment was performed to a control group treated with Fc of IgG1 and a comparative group treated with antibody 4H10.
In addition, an experiment was performed to examine whether the synergistic effect obtained by co-administration of 10D6 and cisplatin as described above is due to the increased transporting efficiency of the administered cisplatin induced by the vascular normalization by treatment of 10D6. Cisplatin binds to DNA in a living body and induces crosslinking, thereby inducing cell death. Rat monoclonal anti-Cisplatin modified DNA (CP9/19) antibody (1:200, Abcam), which is capable of binding to DNA modified by cisplatin in tumor frozen sections, and hamster anti-CD31 antibody (1:200, Millipore), were used for immunofluorescence staining, and fluorescence images were obtained using LSM5 confocal microscope (Zeiss). In addition, to examine necrotic region, the tumor frozen sections were stained with H&E according to standard protocol, and then, Eosin+ cell region in tumor was observed. The obtained results are illustrated in FIG. 18C.

B1: 10D6: mouse anti-Ang2 monoclonal antibody from hybridoma KCLRF-BP-00295; heavy chain variable region SEQ ID NO: 7, light chain variable region SEQ ID NO: 9 (antibody, V domains shown)
VH: DVQLQESGPGLVKPSQSLSLTCTVTGYSITSDYAWNWIRQFPGNKLEWMGYINYSGNTDYNPSLKSRSSITRDTSKNQFFLQLNSVTTGDTATYYCARGNFEGAMDYWGQGTSVTVSS
VL: SIVMTQTPKFLLVSAGDRVTITCKASQSVSNDVAWYQQKPGQSPKLLIYYASNRYPGVPDRFTGSGYGTDFTFTISTVQAEDLAVYFCQQDYSSPWTFGGGTKLEIK
modifications: Synthetic (Heavy chain variable region of an anti-Ang2 antibody); Synthetic (Light chain variable region of anti-Ang2 antibody)
expression of ICAM-1 induced by LPS [1]: remarkably suppressed
binding between HUVEC cells and HL-60 cells induced by TNF-a [2]: remarkably suppressed
percentage of Lectin+ area in CD31+ area [3]: increased
perfusion function of tumor blood vessels [3]: enhanced
tumor size decreased by, compared to the control [4]: 38.5%
